Data: US20210292396A1

Assays:
Test in all cases: cell-based or functional assay
[1] = biological target: HIV Env of isolate CNE19 (HIV)
[2] = biological target: Env of HIV isolate CH119.10 (clade BC) (HIV)
[3] = biological target: Env of HIV isolate HO86.8 (clade B) (HIV)
[4] = biological target: Env of HIV isolate P1981.C5.3 (clade G) (HIV)
[5] = biological target: Env of HIV isolate M02138 (clade AE) (HIV)
[6] = biological target: HIV Env of isolate NKU3006.ec1 (HIV)
[7] = biological target: Env of HIV isolate 928-28 (clade AG) (HIV)
[8] = biological target: Env of HIV isolate T253-11 (clade AG) (HIV)
[9] = biological target: Env of HIV isolate SO18.18 (clade C) (HIV)
[10] = biological target: Env of HIV isolate CAAN.A2 (clade B) (HIV)
[11] = biological target: HIV Env of isolate ZM214.15 (HIV)
[12] = biological target: HIV Env of isolate TZBD.02 (HIV)
[13] = biological target: Env of HIV isolate PVO.04 (clade B) (HIV)
[14] = biological target: Env of HIV isolate BS208.B1 (clade A) (HIV)
[15] = biological target: Env of HIV isolate 6838.v1.c35 (clade C) (HIV)
[16] = biological target: Env of HIV isolate ZM233.6 (clade C) (HIV)
[17] = biological target: HIV Env of isolate DU151.02 (HIV)
[18] = biological target: Env of HIV isolate TRO.11 (clade B) (HIV)
[19] = biological target: HIV Env of isolate A07412M1.vrc12 (HIV)
[20] = biological target: Env of HIV isolate ZM214.15 (clade C) (HIV)
[21] = biological target: HIV Env of isolate X2131.C1.B5 (HIV)
[22] = biological target: Env of HIV isolate 3301.v1.c24 (clade AC) (HIV)
[23] = biological target: Env of HIV isolate 6785.v5.c14 (clade C) (HIV)
[24] = biological target: HIV Env of isolate 00836-2.5 (HIV)
[25] = biological target: HIV Env of isolate MW965.26 (HIV)
[26] = biological target: Env of HIV isolate CM244.ec1 (clade AE) (HIV)
[27] = biological target: HIV Env of isolate 3337.v2.c6 (HIV)
[28] = biological target: HIV Env of isolate 231965.c01 (HIV)
[29] = biological target: Env of HIV isolate Q259.17 (clade A) (HIV)
[30] = biological target: Env of HIV isolate CNE5 (clade AE) (HIV)
[31] = biological target: HIV Env of isolate ZM55.28a (HIV)
[32] = biological target: HIV Env of isolate X1193.c1 (HIV)
[33] = biological target: HIV Env of isolate 6322.v4.c1 (HIV)
[34] = biological target: Env of HIV isolate 45_01dG5 (clade B) (HIV)
[35] = biological target: Env of HIV isolate Bal.01 (clade B) (HIV)
[36] = biological target: HIV Env of isolate X1632.S2.B10 (HIV)
[37] = biological target: Env of HIV isolate 0077.v1.c16 (clade C) (HIV)
[38] = biological target: Env of HIV isolate X2131.C1.B5 (clade G) (HIV)
[39] = biological target: Env of HIV isolate 6471.v1.c16 (clade C) (HIV)
[40] = biological target: Env of HIV isolate 16845-2.22 (clade C) (HIV)
[41] = biological target: Envelope protein of SVA.MLV (clade NA)
[42] = biological target: Env of HIV isolate WITO.33 (clade B) (HIV)
[43] = biological target: Env of HIV isolate CAP210.E8 (clade C) (HIV)
[44] = biological target: Env of HIV isolate 0439.v5.c1 (clade A) (HIV)
[45] = biological target: HIV Env of isolate ZM106.9 (HIV)
[46] = biological target: HIV Env of isolate A03349M1.vrc4a (HIV)
[47] = biological target: Envelope protein of SIVmac251.30.SG3 (clade NA)
[48] = biological target: Env of HIV isolate 26191-2.48 (clade C) (HIV)
[49] = biological target: Env of HIV isolate ZA012.29 (clade C) (HIV)
[50] = biological target: HIV Env of isolate P0402.c2.11 (HIV)

B1: ePGT121.15 (ePGT121.15.H6 VH and ePGT121.15.L1 VL) (antibody, V domains shown)
VH: QMQLQESGPGLVKPGETLSLTCSVSGASISSSYWSWLRETPGKGLEWIGYTHHSGDTNYAPSLKSRVHLGLHPSKNQVSLSLTSVTAADTAVYYCARTLHGRRIYGVVAFNEFFTYFYWEVWGKGTQVTVSS
VL: SDISVAPGETVRISCGGESIGSRAVQWYQHRAGQAPKLIIYNNQDRPPGIPERFSGSPDIDFGTTATLTITNVEAGDEATYYCHIWDSRRPTNWVFGGGTTLTVL
With B1 the IC80, pseudovirus neutralization [1] was 30 ng/mL, the IC50, pseudovirus neutralization [2] was 5 ng/mL and the IC50, pseudovirus neutralization [3] was > 50000 ng/mL. The IC50, pseudovirus neutralization [4] was 2 ng/mL, the IC50, pseudovirus neutralization [5] was > 50000 ng/mL and the IC80, pseudovirus neutralization [6] was > 50000 ng/mL. For the same binder, the IC50, pseudovirus neutralization [7] was 161 ng/mL, the IC50, pseudovirus neutralization [8] was 9 ng/mL and the IC50, pseudovirus neutralization [9] was 4 ng/mL. It also gave an IC50, pseudovirus neutralization [10] of 5 ng/mL, an IC80, pseudovirus neutralization [11] of 126 ng/mL and an IC80, pseudovirus neutralization [12] of 7 ng/mL. The IC50, pseudovirus neutralization [13] was 6 ng/mL, the IC50, pseudovirus neutralization [14] was > 50000 ng/mL and the IC50, pseudovirus neutralization [15] was 234 ng/mL. For the same binder, the IC50, pseudovirus neutralization [16] was 16 ng/mL, the IC80, pseudovirus neutralization [17] was 4 ng/mL and the IC50, pseudovirus neutralization [18] was 3 ng/mL. It also gave an IC80, pseudovirus neutralization [19] of 12 ng/mL, an IC50, pseudovirus neutralization [20] of 28 ng/mL and an IC80, pseudovirus neutralization [21] of 4 ng/mL. For the same binder, the IC50, pseudovirus neutralization [22] was 6 ng/mL, the IC50, pseudovirus neutralization [23] was 4 ng/mL and the IC80, pseudovirus neutralization [24] was > 50000 ng/mL. The IC80, pseudovirus neutralization [25] was 9 ng/mL, the IC50, pseudovirus neutralization [26] was 7020 ng/mL and the IC80, pseudovirus neutralization [27] was 2630 ng/mL. The IC80, pseudovirus neutralization [28] was > 50000 ng/mL, the IC50, pseudovirus neutralization [29] was > 50000 ng/mL and the IC50, pseudovirus neutralization [30] was > 50000 ng/mL. The IC80, pseudovirus neutralization [31] was 29 ng/mL, the IC80, pseudovirus neutralization [32] was 7 ng/mL and the IC80, pseudovirus neutralization [33] was > 50000 ng/mL. For the same binder, the IC50, pseudovirus neutralization [34] was 3 ng/mL, the IC50, pseudovirus neutralization [35] was 2 ng/mL and the IC80, pseudovirus neutralization [36] was > 50000 ng/mL. For the same binder, the IC50, pseudovirus neutralization [37] was > 50000 ng/mL, the IC50, pseudovirus neutralization [38] was 2 ng/mL and the IC50, pseudovirus neutralization [39] was 1040 ng/mL. For the same binder, the IC50, pseudovirus neutralization [40] was 77 ng/mL, the IC50, pseudovirus neutralization [41] was > 50000 ng/mL and the IC50, pseudovirus neutralization [42] was 8 ng/mL. The IC50, pseudovirus neutralization [43] was 52 ng/mL, the IC50, pseudovirus neutralization [44] was 4720 ng/mL and the IC80, pseudovirus neutralization [45] was 6 ng/mL. The IC80, pseudovirus neutralization [46] was 19 ng/mL, the IC50, pseudovirus neutralization [47] was > 50000 ng/mL and the IC50, pseudovirus neutralization [48] was 5 ng/mL. The IC50, pseudovirus neutralization [49] was 4 ng/mL and the IC80, pseudovirus neutralization [50] was 7 ng/mL.
